From PMC10108556 (Antibody Therapeutics, 2023)

Experiments:
[1] = target: RBD-his (SARS-CoV-2, UniProt P0DTC2); experiment: AlphaScreen or HTRF
[2] = target: T1, SARS-CoV-2 RBD domain (residues 319–541) with C-terminal twin-strep-tag II (SARS-CoV-2 Wuhan-Hu-1 (MN908947), UniProt P0DTC2); experiment: cryo-EM structure
[3] = target: T2, SARS-CoV-2 RBD domain (residues 319-541) (SARS-CoV-2 Wuhan-Hu-1 (MN908947), UniProt P0DTC2); experiment: cryo-EM structure
[4] = target: T1, SARS-CoV-2 RBD domain (residues …); experiment: crystal structure
[5] = target: T2, SARS-CoV-2 RBD domain (residues 319-541); experiment: crystal structure

B1: nAb A34–2 (antibody, V domains shown)
VH: EVQLVESGGGLVQPGRSLRLSCAASGFTFDESAMHWVRQAPGEGLEWVSGISWNSGRIAYADSVRGRFTISRDNAKNSLYLQMNSLRAEDTALYFCALTTSGWFSFDYWGQGTLVTVSS
VL: SYVLTQPPSVSVAPGKTARITCGGNNIGSKSVHWYQQKPGQAPVPVIYYDSDRPSGIPERFSGSNSGNTATLTISRVEVGDEADYYCQVWDSSSDRAVFGGGTTLTVL
[1]
  binding result: binds

B2: A34–2 Fab (Fab, V domains shown)
VH: EVQLVESGGGLVQPGRSLRLSCAASGFTFDESAMHWVRQAPGEGLEWVSGISWNSGRIAYADSVRGRFTISRDNAKNSLYLQMNSLRAEDTALYFCALTTSGWFSFDYWGQGTLVTVSS
VL: SYVLTQPPSVSVAPGKTARITCGGNNIGSKSVHWYQQKPGQAPVPVIYYDSDRPSGIPERFSGSNSGNTATLTISRVEVGDEADYYCQVWDSSSDRAVFGGGTTLTVL
[2]
  binding result: binds

B3: A34-2 Fab (Fab, V domains shown)
VH: EVQLVESGGGLVQPGRSLRLSCAASGFTFDESAMHWVRQAPGEGLEWVSGISWNSGRIAYADSVRGRFTISRDNAKNSLYLQMNSLRAEDTALYFCALTTSGWFSFDYWGQGTLVTVSS
VL: SYVLTQPPSVSVAPGKTARITCGGNNIGSKSVHWYQQKPGQAPVPVIYYDSDRPSGIPERFSGSNSGNTATLTISRVEVGDEADYYCQVWDSSSDRAVFGGGTTLTVL
[3]
  binding result: binds

B4: A5–10 Fab (Fab, V domains shown)
VH: EVQLLESGGGLVQPGGSLRLSCAASGFTFSSYAMSWVRQAPGKGLEWVSAIVGSGGSTYYADSVKGRFIISRDNSKNTLYLQMNSLRAEDTAVYYCAKSLIYGHYDILTGAYYFDYWGQGTLVTVSS
VL: AQMTQSPSSVSASVGDRVTIPCRASQGIGNWLAWYQQKPGKAPKLLIYAASSLQSGVPSRFSGSGSGTDFTLTISSLQPEDFATYYCQQANSFPPFGQGTRLEIK
[2]
  binding result: binds

B5: nAb A5–10 (antibody, V domains shown)
VH: EVQLLESGGGLVQPGGSLRLSCAASGFTFSSYAMSWVRQAPGKGLEWVSAIVGSGGSTYYADSVKGRFIISRDNSKNTLYLQMNSLRAEDTAVYYCAKSLIYGHYDILTGAYYFDYWGQGTLVTVSS
VL: AQMTQSPSSVSASVGDRVTIPCRASQGIGNWLAWYQQKPGKAPKLLIYAASSLQSGVPSRFSGSGSGTDFTLTISSLQPEDFATYYCQQANSFPPFGQGTRLEIK
[1]
  binding result: binds

B6: A5-10 Fab (Fab, V domains shown)
VH: EVQLLESGGGLVQPGGSLRLSCAASGFTFSSYAMSWVRQAPGKGLEWVSAIVGSGGSTYYADSVKGRFIISRDNSKNTLYLQMNSLRAEDTAVYYCAKSLIYGHYDILTGAYYFDYWGQGTLVTVSS
VL: AQMTQSPSSVSASVGDRVTIPCRASQGIGNWLAWYQQKPGKAPKLLIYAASSLQSGVPSRFSGSGSGTDFTLTISSLQPEDFATYYCQQANSFPPFGQGTRLEIK
[3]
  binding result: binds

B7: A8–1 Fab (Fab, V domains shown)
VH: EVQLVESGGGLIQPGGSLRLSCAASGLTVSSNYMTWVRQAPGKGLEWVSVIYSGGSTFYAESVKGRFTISRDNSKNTLYLQMNSLRAEDTAVYYCARDLVVYGMDVWGQGTTVIVSS
VL: IQLTQSPSFLSASVGDRVTITCRASQGISSDLAWYQQKPGKAPKLLIYAASTLQSGVPSRFSGSGSGTEFTLTISSLQPEDFATYYCQQLNSHPLAFGPGTKVDIK
[4]
  binding result: binds

B8: nAb A8–1 (antibody, V domains shown)
VH: EVQLVESGGGLIQPGGSLRLSCAASGLTVSSNYMTWVRQAPGKGLEWVSVIYSGGSTFYAESVKGRFTISRDNSKNTLYLQMNSLRAEDTAVYYCARDLVVYGMDVWGQGTTVIVSS
VL: IQLTQSPSFLSASVGDRVTITCRASQGISSDLAWYQQKPGKAPKLLIYAASTLQSGVPSRFSGSGSGTEFTLTISSLQPEDFATYYCQQLNSHPLAFGPGTKVDIK
[1]
  binding result: binds

B9: A8-1 Fab (Fab, V domains shown)
VH: EVQLVESGGGLIQPGGSLRLSCAASGLTVSSNYMTWVRQAPGKGLEWVSVIYSGGSTFYAESVKGRFTISRDNSKNTLYLQMNSLRAEDTAVYYCARDLVVYGMDVWGQGTTVIVSS
VL: IQLTQSPSFLSASVGDRVTITCRASQGISSDLAWYQQKPGKAPKLLIYAASTLQSGVPSRFSGSGSGTEFTLTISSLQPEDFATYYCQQLNSHPLAFGPGTKVDIK
[5]
  binding result: binds
